Measured values published in US12162934B2, “Gremlin-1 antagonist for the prevention and treatment of cancer” (UCB BIOPHARMA SRL, priority 2018, dated 2024).

Assays:
human Gremlin = biological target: T1, human Gremlin (Homo sapiens, UniProt O60565); experiment: Hek-Id1 reporter gene assay: anti-Gremlin-1 antibodies restoring BMP signalling blocked by human Gremlin; assay type: cell-based; details: 10-fold excess and 80% inhibition Gremlin-1 concentration
T1 sequence (O60565 25-184): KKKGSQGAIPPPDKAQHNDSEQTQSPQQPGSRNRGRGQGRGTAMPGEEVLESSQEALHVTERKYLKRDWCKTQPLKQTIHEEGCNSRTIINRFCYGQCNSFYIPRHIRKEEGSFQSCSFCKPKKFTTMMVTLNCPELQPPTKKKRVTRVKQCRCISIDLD
Text: The Hek Id1 reporter gene assay uses Clone 12 Hek293-Id1 reporter cells. This cell line was stably transfected with Id1 transcription factor. Id1 is a transcription factor in the BMP signalling pathway. Gremlin is known to bind BMPs prevent binding to their receptors reducing the luciferase signal from the reporter gene. Therefore, using this reporter assay, it is possible to screen anti-Gremlin antibodies and see if there are any that block the interaction of Gremlin with BMPs. A restoration of the luciferase signal is seen in these cells if there is a blocking of this interaction.
Clone 12 cells were cultured in DMEM containing 10% FCS, 1× L-Glutamine & 1× NEAA. […]
The cells were washed in PBS, lifted off using cell dissociation buffer, spun and counted before being seeded at 5×10^4/well in 70 μl (Density of 7.14×10^5/ml). […]
Post incubation, 30 μl of sample was transferred per well of assay plate and incubated for 20-24 hours before measuring luminescence signal.
Cell Steady Glo was thawed in advance at room temperature. […] Luciferase signal was detected by addition of cell steady glo reagent (100 μl) for 20 minutes on shaker at room temperature and measuring luminescence using cell titre glo protocol on Synergy 2. […]
The percentage of inhibition from dose response assays was calculated based on the maximum and minimum signals in the assay and the data fitted using 4 parameter logistical fit. […]

[1] = biological target: T2, BMP4/7-Gremlin-1 complexes (Homo sapiens, UniProt O60565); experiment: SMAD phosphorylation assay: displacement of BMP4/7 from Gremlin 1-BMP complexes; assay type: cell-based; details: BMP4/7 50 ng/ml
T2 sequence (O60565 25-184): T1 sequence (O60565 25-184)
Method: Experiments were again performed using lung fibroblasts from idiopathic pulmonary fibrosis patients. rhBMP-2 or rhBMP 4/7 were preincubated with rhGremlin-1 for 1 hour at room temperature. The BMP-2- or BMP4/7-Gremlin-1 complexes were incubated with different concentrations of the anti-Gremlin-1 antibodies overnight at 4° C. Antibody concentrations represent the final concentration on the plate.

[2] = tested on: intestinal epithelial pSMAD1,5 signalling; experiment: Western blot of intestinal epithelial pSMAD1,5 in treated Vil1-Grem1 animals; assay type: in vivo, mouse
Method: Western blotting. Isolation of colon epithelium cells was carried out by incubating a 2 cm long piece of tissue with 30 mM EDTA for 2 h with agitation at 4° C. Pelleted epithelial cells were lysed RIPA lysis buffer with the addition of protease inhibitors (Complete Mini, Roche) and phosphatase inhibitors (PhosSTOP, Roche). All lysates were quantified using the BCA assay (Thermo Scientific), […] was diluted in an appropriate amount of 4× loading dye (Invitrogen) and denatured at 95° C. for 5 minutes. Western blotting was done with the NuPAGE Gel system, (Invitrogen) according to manufacturer's protocol. Briefly, denatured lysates were loaded onto a 4-12% gel and run at 100 V for at least 2 hours. The gels were transferred onto PVDF membrane (Immobilon P, Millipore) in a semi-dry tank (120 mA for at least 2 hours) and blocked by incubating for 1 hour at room temperature in TBS containing 10% milk (Marvel). […] After further washes, the blots were incubated in ECL reagents (GE healthcare) and chemiluminescence was detected by chemiluminescence film (GE Healthcare).
Epithelial BMP activity can be measured by phosphorylation of the SMAD 1,5,8 intracellular signalling transducers.
The aberrant epithelial Grem1 expression in Vil1-Grem1 mice suppressed physiological intestinal BMP pathway activity with reduction in detected pSMAD1,5 protein levels detected by Western blot.

## Ab7326: allosteric inhibitory anti-Gremlin-1 antibody from a naïve human library; CDRs SEQ ID NOS 4 to 9; mouse IgG1 in mouse experiments
Human Gremlin
  Blocking ability in the Hek-Id1 reporter gene assay: maintained blocking ability
[1]; antibody 0.63 μg/ml
  Displacement of BMP4/7 from Gremlin 1-BMP complexes (SMAD phosphorylation): 102.0%
[1]; antibody 1.27 μg/ml
  Displacement of BMP4/7 from Gremlin 1-BMP complexes (SMAD phosphorylation): 111.1%
[1]; antibody 2.55 μg/ml
  Displacement of BMP4/7 from Gremlin 1-BMP complexes (SMAD phosphorylation): 120.9%
[1]; antibody 5.1 μg/ml
  Displacement of BMP4/7 from Gremlin 1-BMP complexes (SMAD phosphorylation): 121.4%
[1]; antibody 10.2 μg/ml
  Displacement of BMP4/7 from Gremlin 1-BMP complexes (SMAD phosphorylation): 125.6%
[1]; antibody 20.3 μg/ml
  Displacement of BMP4/7 from Gremlin 1-BMP complexes (SMAD phosphorylation): 130.3%
[1]; antibody 40.6 μg/ml
  Displacement of BMP4/7 from Gremlin 1-BMP complexes (SMAD phosphorylation): 132.3%
[1]; antibody 81.3 μg/ml
  Displacement of BMP4/7 from Gremlin 1-BMP complexes (SMAD phosphorylation): 133.7%
[2]; 10 mg/kg weekly subcutaneous
  Restoration of intestinal epithelial pSMAD1,5 signalling: not
[2]; 30 mg/kg weekly subcutaneous
  Restoration of intestinal epithelial pSMAD1,5 signalling: able to restore
